According to the DeepSol protein solubility set:

assay: soluble on expression in E. coli; label from the status in PepcDB or PDB records

Sequence | soluble on expression in E. coli
MSLANKKFWLITDTHFDDEFTVGSSSKCLAIDCCHSNSIPRKGQENFISGSCGDYNCYSPLNVSESAFDYIAKHQSESKLIFWLMDVVPGDVITQSKETNKKRIQLQVEALKKRLSGFRIYPVPGNHDYWLSSNWQYPPQNQWMLDFMGDLFKDWLSPNALEQFKKGGFYTELIDSGVRIIALYLAYVDVYGSHCNEYVENDPAGMMKWFNETLELARKNGERVILLSHEGVGLKESGTIDVVPKFNEDFSYAMNEYSDIIISHLSGHSHFNSFRVLPNITKPTFHIIMNPAMTSFKNLNPRFRLYEYDRKNIKDYTNYMLNINKCNKNNKFEWEIEYNAKELFGIEEYTTKNLKEFIEQLAVDDELWTKFDSHYSTINRKCEGNCRKDLLCSIHCMKESEFITCINQKEGHHHHHH | not soluble
MSLANSKVYAIPTTCNSGIFVGRAENLDAIDIMKDPNYTGKVSIVGFDVANCSDNNSDDNHKNHNETAIGNGPTPKWHNSNYTSDFLNVAQQGKDTMISATLPNPVPSQEIGSVGQIAYGSQISDADFKELASVDIKNINQSSPYFVRNYGQMVSKLGDIIEKYHTELMDSNGNATIYLRPFHEMNSPWLWWGFKNQDDFKNLWIHLHNYLVNDRKFTWLKFCFAASAGDPSLDPAHVKGANSYYPGNNYVDTVALDGYSDDPSNDSGIKKQYAELTATGKPFGFAELGAKVDGDFVNVPNERTQQNVETRPFNYQKWSDAIQKYYSNAKYCIVFGGAYDPRNNLHGTSLFSNEGHHHHHH | soluble
MSLAQNSSIDYPSYQKRNTDALEISRIVRNDTATILYMDAYSRPNYWIRLASELSLHGVQSGKKYPVIRSQGFELDKQVYMPASGNVTFTLQFAPIDPQDRTIDFVESNNEEDFRIEGICLDASVPKKKVHCHLAGKMANRPQTSRLILIESNKNTRGTPWISIPVRNGVFEYDFYTDHEKAYELICWDDLLNGCWYPVTFFAENGTVSFTISAIDARPPYRIETLNSLTTALRLFEAEGKDKFSFDELNARRDTLEKYGRFESEAMQALWKKFDQVKDNPEERNKLFRERDRLEESGEAFTKEAKALIKEREQLFRKKVIWETEQASQHPSLVGLFILKMKVENARKDEDVTPYLEAFQKVYASRYPEHPYTREMQMFIDNNQPKTGNRFIDFSAPDLNGNMVQLSEQIRGKVALIDLWASWCGPCRTTSKQLIPIYEKYKDRGFTVIGVAREQNSDIRMREAIRKDGYPWLNLIELNDVQQIWSKYRIPNAAGGTFLVNAQGIILAVNPTAEEVERILQKELEGHHHHHH | soluble
MSLAQQKPVEKVDSDGVYLMPDQMPEFPGGMQAMMKFLTTNIKYPVEAQKKGVSGRVIVQFVIMEDGTLDQAKVVRGVDPLLDEEALRVVKLMPKWKPGMDRGEAVKVRFTAPIMFNLSRSEAQRPTFPELVVPIGQEVENRSLQGVWQSCVAQPGEHGYKILLLPVLKIVSPDQTFMNIMTAGMNGRSNAIIYCQGEYSLPSDGTYVEMVEKSVDPVFIQGVKNEISVERLHDNLIKLSFTVPGQGRKVTEYWFRAPSPDVKIMAEGHHHHHH | soluble
MSLAQTLGYIYRKRMIDSIEEFSRQIETTYQINKFWDNFEQIREVQNTKIDKVKEKQQKLMERLSSLYDKVEGQKEMGSMNNSNISAAESEWFAEIKRSVIEFNSYVRKASTNHQELEFIKEQQAQIANQKPDISSENGKEWNDLQQLLREGHHHHHH | soluble
MSLARELRKGKSNAIGMLFGDPSSGFQSRLHHAALQACNDAGYFLTAGLFREEEDNWDEQLTQFLNRTSIEKMILVPPLCGSTALHDRLIEQGASFVLVSPSRAVAVAHAVCMDDRRAAREITEHLLGLGHRRIAHITGPSDHAATRLRREGFEDAMRAVGDGALRPDWIRPGLFRFKPALECARQILTGPDRPTAIFAANDEMAAAVCFAANSLGLRVPDDLSVVGFDDVAIATTMWPPLTTVAQPYAQMARESVRLLTEVGPPGDAGQAAEKVTIDHALKVRQSTAAEGHHHHHH | soluble
MSLARIIVVTSGKGGVGKTTSSAAIATGLAQKGKKTVVIDFDIGLRNLDLIMGCERRVVYDFVNVIQGDATLNQALIKDKRTENLYILPASQTRDKDALTREGVAKVLDDLKAMDFEFIVCDSPAGIETGALMALYFADEAIITTNPEVSSVRDSDRILGILASKSRRAENGEEPIKEHLLLTRYNPGRVSRGDMLSMEDVLEILRIKLVGVIPEDQSVLRASNQGEPVILDINADAGKAYADTVERLLGEERPFRFIEEEKKGFLKRLFGGEGHHHHHH | soluble
MSLARQVTAFNTGWQFKKGPFATDPMRAASQWDGKWETVEIPHTWNAMDMQVQSGSFYEGAGYYRKTQFFPHDLEGKRVFLRFEGVGACAEVYVNGKLAGTHKGGYSAFACEIGTALKLGAENEIIVKADNKARPDVIPVNQNLFGVYGGIYRPVWLIVTEQNNITVTDCASPGVYITQKDVSKKSADITVKVKLDNAGLQPAAVTLENTIYTQEGQKVGTHSRSFDLSPQGTQTYLSTFKLKNPHLWQGRKDPYLYKVVCRLMADGKVIDEVVQPLGVRKYEIVAGKGFFLNGEKYSMYGVTRHQDWWGLGSALKNEHHDFDLAAIMDVGATTVRFAHYQQSDYLYSRCDTLGLIIWAEIPCVNRVTGYETENAQSQLRELIRQSFNHPSIYVWGLHNEVYQPHEYTAALTRSLHDLAKTEDPDRYTVSVNGYGHMDHPVNLNADIQGMNRYFGWYEKKIQDIKPWVEQLEKDYPYQKLMLTEYGADANLAHQTEYLGDALNWGKPFYPETFQTKTHEYQWSIIKDHPYIIASYLWNMFDFAVPMWTRGGVPARNMKGLITFDRKTKKDSYFWYKANWSEEPVLYLTQRRNADREKRTTAVTVYSNIGTPKVYLNGQELSGIRNGYTDVHYVFDNVSLADGKNILKAVVSTKGKEYTDEIEWNYSGEKNREIDSYENKNEHSGEGHHHHHH | soluble
MSLATARTYLASLTVATEDRTGYDRDLFPHWITQSGTCNTRETILKRDGTNVVTDSSCAATSGSWYSPYDGATWSASSDVDIDHMVPLAEAWDSGADSWTTSRRQSFANDLTRPQLLAVTDNVNQSKGDQDPATWMPSRSAYRCTYVRAWVQVKYYYDLSVDSAEKSAMQGYLANCEGHHHHHH | not soluble
MSLATIKDVAQRAGVSPSTASRAMHGSKIISKPTRDKVIKAARELNYAPDFNAQNLATKASNTIGVVLPVDHHEIFSNPFFLEMIRGINEVCSKNGAMTTLATGISSDELVHNIDVMIAQGHIKTFILLYSEKNDPVVERLKQFDVQYVVIGKPYQDVNKTSYVDNDNIQAGTDAAQYLIDHGHRRIGFLYSDLSRMVQSDRMLGYQRVMMQNQLPNIMLEERFETHAAGVKTLHKFFEQYPDVTGFVAVDDMLALKLQQVLHNDPNWKVKQFSLIGFNNSIFSDLAHPMLTSIAVFPQRLGEEAAKIAMADHPADELSTAVIVPHQIVKRHSVHQIKSEGHHHHHH | soluble
MSLAVFAARKWKYNEDKMMTIVRIDAEARWSDVVIHNNTLYYTGVPENLDADAFEQTANTLAQIDAVLEKQGSNKSSILDATIFLADKNDFAAMNKAWDAWVVAGHAPVRCTVQAGLMNPKYKVEIKIVAAVEGHHHHHH | soluble
MSLAYQSEYALENEMMNQLEQLGYERVTIRDNKQLLDNFRTILNERHADKLEGNPLTDKEFQRLLTMIDGKSIFESARILRDKLPLRRDDESEIYLSFLDTKSWCKNKFQVTNQVSVEDTYKARYDVTILINGLPLVQVELKRRGIDINEAFNQVKRYRKQNYTGLFRYIQMFIISNGVETRYFSNNDSELLKSHMFYWSDKQNNRINTLQSFAESFMRPCQLAKMISEGHHHHHH | soluble
MSLCDVLQMARSTYYYEAKIRDDQDEELSELIVDIFKNSRDNYGQRKIKIELRKKGWTVSRRRIGRIMKEQGLVSKYTVAQFKPAKTSCNESEIGNTLNREFNQEQELKVVVSDLTYVRVQQKWHYICVLVDLYNREIIGYSAGPHKSAELVQRAFASVKYNLQRLELFHTDRGSEFKNKLIDQALETFGIERSLSEKGTPYDNAVAEATFKTIKTEFVRGAVFSSQQELDLELFDYVHWFNTIRIHGSLDYLTPTEYKLMNLEGHHHHHH | not soluble
